Test results from article PMC11341946.

Target: RNA polymerase II
Experiment: Re-ChIP (IP ERα then IP PolII), real time qPCR
Conditions: HEK293T cells, read off a plot
[1] = complement C3 enhancer, cadmium (2 µM) for 60 minutes
[2] = complement C3 enhancer, control (untreated)
[3] = complement C3 enhancer, estradiol (100 nM) for 60 minutes
[4] = lactoferrin enhancer, cadmium (2 µM) for 60 minutes
[5] = lactoferrin enhancer, control (untreated)
[6] = lactoferrin enhancer, estradiol (100 nM) for 60 minutes

| Substance | response [1] [% Input] | response [2] [% Input] | response [3] [% Input] | response [4] [% Input] | response [5] [% Input] | response [6] [% Input] |
| --- | --- | --- | --- | --- | --- | --- |
| wild-type estrogen receptor alpha (from UniProt P03372) Y537S | 0.015 | 0.0065 | 0.0073 | 0.0063 | 0.0022 | 0.0022 |
| wild-type estrogen receptor alpha (from UniProt P03372) D538G | 0.019 | 0.0076 | 0.0077 | 0.014 | 0.0046 | 0.0061 |
